Laboratory results as given in paper PMC3033577 (FEBS letters, 2004).
Each block holds one binder with its values, some of them ahead of it.

Experiments:
[1] = target: T1, B. stearothermophilus DnaB, main replicative ring helicase (B. stearothermophilus, UniProt Q9X4C9 1-454); assay: SEC
T1 sequence (looked up): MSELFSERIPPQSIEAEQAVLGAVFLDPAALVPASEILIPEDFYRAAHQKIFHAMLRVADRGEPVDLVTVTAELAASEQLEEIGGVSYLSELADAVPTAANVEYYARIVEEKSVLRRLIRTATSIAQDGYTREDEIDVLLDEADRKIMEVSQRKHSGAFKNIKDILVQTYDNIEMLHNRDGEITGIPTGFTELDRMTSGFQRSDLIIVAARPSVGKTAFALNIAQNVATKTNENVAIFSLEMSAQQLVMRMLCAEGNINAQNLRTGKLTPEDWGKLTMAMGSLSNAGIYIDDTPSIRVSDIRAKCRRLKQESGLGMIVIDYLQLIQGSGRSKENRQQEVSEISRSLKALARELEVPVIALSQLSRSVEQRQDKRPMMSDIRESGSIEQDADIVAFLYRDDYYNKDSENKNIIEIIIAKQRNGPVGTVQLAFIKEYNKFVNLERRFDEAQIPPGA

DnaD [2] = target: T2, DnaD (Bacillus subtilis (strain 168 EMG50), UniProt P39787 1-232); assay: EMSA
T2 sequence: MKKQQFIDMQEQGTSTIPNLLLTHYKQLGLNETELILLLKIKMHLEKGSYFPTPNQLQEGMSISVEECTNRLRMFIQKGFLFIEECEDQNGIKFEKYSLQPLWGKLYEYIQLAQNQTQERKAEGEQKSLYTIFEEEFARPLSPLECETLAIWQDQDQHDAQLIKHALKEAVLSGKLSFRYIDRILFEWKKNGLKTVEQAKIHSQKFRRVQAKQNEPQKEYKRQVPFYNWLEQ

DnaD [3] = target: T2, DnaD; assay: sedimentation velocity ultracentrifugation

- binding result [1]: binds
B1: B. subtilis DnaI, putative helicase loader (natural protein, UniProt P06567 1-311, looked up)
chain: MEPIGRSLQGVTGRPDFQKRLEQMKEKVMKDQDVQAFLKENEEVIDQKMIEKSLNKLYEYIEQSKNCSYCSEDENCNNLLEGYHPKLVVNGRSIDIEYYECPVKRKLDQQKKQQSLMKSMYIQQDLLGATFQQVDISDPSRLAMFQHVTDFLKSYNETGKGKGLYLYGKFGVGKTFMLAAIANELAEKEYSSMIVYVPEFVRELKNSLQDQTLEEKLNMVKTTPVLMLDDIGAESMTSWVRDEVIGTVLQHRMSQQLPTFFSSNFSPDELKHHFTYSQRGEKEEVKAARLMERILYLAAPIRLDGENRRHP

Binder: TGCATGCCTGCAGGTCGACTCTAGAGGATCCCC (ssDNA) [33mer oligonucleotide (radiolabeled)]
- binding result (DnaD [2]): binds

Binder: TGCATGCCTGCAGGTCGACTCTAGAGGATCCCC (ssDNA) [33mer oligonucleotide (5'-HEX)]
- binding result (DnaD [3]): binds
